Measurements taken from patent US20240117011A1.

Target: spike of variant B.1.351 v.1 on pseudovirus
Test: cell-based or functional assay

Substance | neutralization IC50 [µg/mL]
CB6 (antibody) | > 10
LY-CoV555 (antibody) | > 10
